From IntAct's records for PubMed 31515488

B1: F-BAR domain only protein 1 (Homo sapiens), O14526 (parent)
chain: MSYFGEHFWGEKNHGFEVLYHSVKQGPISTKELADFIRERATIEETYSKAMAKLSKLASNGTPMGTFAPLWEVFRVSSDKLALCHLELTRKLQDLIKDVLRYGEEQLKTHKKCKEEVVSTLDAVQVLSGVSQLLPKSRENYLNRCMDQERLRRESTSQKEMDKAETKTKKAAESLRRSVEKYNSARADFEQKMLDSALRFQAMEETHLRHMKALLGSYAHSVEDTHVQIGQVHEEFKQNIENVSVEMLLRKFAESKGTGREKPGPLDFEAYSAAALQEAMKRLRGAKAFRLPGLSRREREPEPPAAVDFLEPDSGTCPEVDEEGFTVRPDVTQNSTAEPSRFSSSDSDFDDEEPRKFYVHIKPAPARAPACSPEAAAAQLRATAGSLILPPGPGGTMKRHSSRDAAGKPQRPRSAPRTSSCAERLQSEEQVSKNLFGPPLESAFDHEDFTGSSSLGFTSSPSPFSSSSPENVEDSGLDSPSHAAPGPSPDSWVPRPGTPQSPPSCRAPPPEARGIRAPPLPDSPQPLASSPGPWGLEALAGGDLMPAPADPTAREGLAAPPRRLRSRKVSCPLTRSNGDLSRSLSPSPLGSSAASTALERPSFLSQTGHGVSRGPSPVVLGSQDALPIATAFTEYVHAYFRGHSPSCLARVTGELTMTFPAGIVRVFSGTPPPPVLSFRLVHTTAIEHFQPNADLLFSDPSQSDPETKDFWLNMAALTEALQRQAEQNPTASYYNVVLLRYQFSRPGPQSVPLQLSAHWQCGATLTQVSVEYGYRPGATAVPTPLTNVQILLPVGEPVTNVRLQPAATWNLEEKRLTWRLPDVSEAGGSGRLSASWEPLSGPSTPSPVAAQFTSEGTTLSGVDLELVGSGYRMSLVKRRFATGMYLVSC
B2: Low-density lipoprotein receptor class A domain-containing protein 1 (Homo sapiens), Q5T700 (parent)
chain: MNKVFPQGENGYTAAESKAHPGGEAGGGHLCCSRRGACLSASLLLLLATVAALIALVTILGLPSCTPGAQACITLTNRTGFLCHDQRSCIPASGVCDGVRTCTHGEDEDESLCRDVPQSLPHFLVAHCGDPASWIYSDQKCDGTNNCGDCSDELSPVTVCPPCGPGWWRCPSTFFKYCDCIPRHLCRDHVQHCSDWSDEYACPGP
partner: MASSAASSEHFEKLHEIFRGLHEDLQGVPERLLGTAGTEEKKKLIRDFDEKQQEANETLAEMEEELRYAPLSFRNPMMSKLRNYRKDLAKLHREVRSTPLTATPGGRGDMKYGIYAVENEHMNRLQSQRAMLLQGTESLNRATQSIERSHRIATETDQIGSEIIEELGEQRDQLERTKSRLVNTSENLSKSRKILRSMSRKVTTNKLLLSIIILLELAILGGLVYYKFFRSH
B3: Alpha-taxilin (Homo sapiens), P40222 (parent)
chain: MKNQDKKNGAAKQSNPKSSPGQPEAGPEGAQERPSQAAPAVEAEGPGSSQAPRKPEGAQARTAQSGALRDVSEELSRQLEDILSTYCVDNNQGGPGEDGAQGEPAEPEDAEKSRTYVARNGEPEPTPVVNGEKEPSKGDPNTEEIRQSDEVGDRDHRRPQEKKKAKGLGKEITLLMQTLNTLSTPEEKLAALCKKYAELLEEHRNSQKQMKLLQKKQSQLVQEKDHLRGEHSKAVLARSKLESLCRELQRHNRSLKEEGVQRAREEEEKRKEVTSHFQVTLNDIQLQMEQHNERNSKLRQENMELAERLKKLIEQYELREEHIDKVFKHKDLQQQLVDAKLQQAQEMLKEAEERHQREKDFLLKEAVESQRMCELMKQQETHLKQQLALYTEKFEEFQNTLSKSSEVFTTFKQEMEKMTKKIKKLEKETTMYRSRWESSNKALLEMAEEKTVRDKELEGLQVKIQRLEKLCRALQTERNDLNKRVQDLSAGGQGSLTDSGPERRPEGPGAQAPSSPRVTEAPCYPGAPSTEASGQTGPQEPTSARA
partner: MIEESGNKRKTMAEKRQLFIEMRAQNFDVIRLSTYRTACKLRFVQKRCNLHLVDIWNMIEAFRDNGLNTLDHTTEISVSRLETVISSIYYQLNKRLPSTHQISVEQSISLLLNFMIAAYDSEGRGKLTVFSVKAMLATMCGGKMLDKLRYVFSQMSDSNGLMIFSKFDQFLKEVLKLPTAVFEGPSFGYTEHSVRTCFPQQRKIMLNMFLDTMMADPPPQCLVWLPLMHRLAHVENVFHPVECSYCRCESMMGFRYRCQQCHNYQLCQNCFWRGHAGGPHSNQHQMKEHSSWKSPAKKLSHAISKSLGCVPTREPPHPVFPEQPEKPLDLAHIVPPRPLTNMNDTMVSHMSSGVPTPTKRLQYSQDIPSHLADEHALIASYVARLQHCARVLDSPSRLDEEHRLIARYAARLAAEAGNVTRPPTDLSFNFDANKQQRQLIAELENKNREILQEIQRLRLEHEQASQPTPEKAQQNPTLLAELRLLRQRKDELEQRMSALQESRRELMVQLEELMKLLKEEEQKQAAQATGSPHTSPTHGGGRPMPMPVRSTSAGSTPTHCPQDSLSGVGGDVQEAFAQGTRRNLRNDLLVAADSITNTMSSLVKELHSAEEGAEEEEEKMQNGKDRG
B4: DnaJ homolog subfamily C member 30, mitochondrial (Homo sapiens), Q96LL9 (parent)
chain: MAAMRWRWWQRLLPWRLLQARGFPQNSAPSLGLGARTYSQGDCSYSRTALYDLLGVPSTATQAQIKAAYYRQCFLYHPDRNSGSAEAAERFTRISQAYVVLGSATLRRKYDRGLLSDEDLRGPGVRPSRTPAPDPGSPRTPPPTSRTHDGSRASPGANRTMFNFDAFYQAHYGEQLERERRLRARREALRKRQEYRSMKGLRWEDTRDTAAIFLIFSIFIIIGFYI
partner: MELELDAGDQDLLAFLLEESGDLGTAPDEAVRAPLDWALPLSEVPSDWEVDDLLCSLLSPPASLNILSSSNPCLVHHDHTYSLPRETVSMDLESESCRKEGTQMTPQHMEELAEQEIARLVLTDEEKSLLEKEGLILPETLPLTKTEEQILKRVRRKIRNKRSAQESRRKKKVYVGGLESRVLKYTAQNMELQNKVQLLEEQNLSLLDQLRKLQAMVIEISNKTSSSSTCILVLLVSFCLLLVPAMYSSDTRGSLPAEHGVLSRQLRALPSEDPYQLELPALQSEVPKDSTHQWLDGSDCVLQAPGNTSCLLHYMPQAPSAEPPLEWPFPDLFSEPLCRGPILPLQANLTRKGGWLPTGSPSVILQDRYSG
B5: Syntenin-2 (Homo sapiens), Q9H190 (parent)
chain: MSSLYPSLEDLKVDQAIQAQVRASPKMPALPVQATAISPPPVLYPNLAELENYMGLSLSSQEVQESLLQIPEGDSTAVSGPGPGQMVAPVTGYSLGVRRAEIKPGVREIHLCKDERGKTGLRLRKVDQGLFVQLVQANTPASLVGLRFGDQLLQIDGRDCAGWSSHKAHQVVKKASGDKIVVVVRDRPFQRTVTMHKDSMGHVGFVIKKGKIVSLVKGSSAARNGLLTNHYVCEVDGQNVIGLKDKKIMEILATAGNVVTLTIIPSVIYEHMVKKLPPVLLHHTMDHSIPDA
partner: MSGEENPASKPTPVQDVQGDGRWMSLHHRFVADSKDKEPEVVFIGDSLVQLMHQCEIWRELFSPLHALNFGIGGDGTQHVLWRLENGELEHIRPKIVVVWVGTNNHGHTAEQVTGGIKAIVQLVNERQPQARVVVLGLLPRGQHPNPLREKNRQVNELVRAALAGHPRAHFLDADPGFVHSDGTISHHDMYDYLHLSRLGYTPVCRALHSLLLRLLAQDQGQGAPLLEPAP
B6: Serine/threonine-protein kinase PAK 6 (Homo sapiens), Q9NQU5 (parent)
chain: MFRKKKKKRPEISAPQNFQHRVHTSFDPKEGKFVGLPPQWQNILDTLRRPKPVVDPSRITRVQLQPMKTVVRGSAMPVDGYISGLLNDIQKLSVISSNTLRGRSPTSRRRAQSLGLLGDEHWATDPDMYLQSPQSERTDPHGLYLSCNGGTPAGHKQMPWPEPQSPRVLPNGLAAKAQSLGPAEFQGASQRCLQLGACLQSSPPGASPPTGTNRHGMKAAKHGSEEARPQSCLVGSATGRPGGEGSPSPKTRESSLKRRLFRSMFLSTAATAPPSSSKPGPPPQSKPNSSFRPPQKDNPPSLVAKAQSLPSDQPVGTFSPLTTSDTSSPQKSLRTAPATGQLPGRSSPAGSPRTWHAQISTSNLYLPQDPTVAKGALAGEDTGVVTHEQFKAALRMVVDQGDPRLLLDSYVKIGEGSTGIVCLAREKHSGRQVAVKMMDLRKQQRRELLFNEVVIMRDYQHFNVVEMYKSYLVGEELWVLMEFLQGGALTDIVSQVRLNEEQIATVCEAVLQALAYLHAQGVIHRDIKSDSILLTLDGRVKLSDFGFCAQISKDVPKRKSLVGTPYWMAPEVISRSLYATEVDIWSLGIMVIEMVDGEPPYFSDSPVQAMKRLRDSPPPKLKNSHKVSPVLRDFLERMLVRDPQERATAQELLDHPFLLQTGLPECLVPLIQLYRKQTSTC

Variants of: B1
Details: with ptk6_human PTK6, Q13882

effect of a mutation on the interaction	Variant
with no effect	E423G

Variants of: B1
Details: with exos5_human EXOSC5, Q9NQT4
exos5_human EXOSC5, Q9NQT4, sequence (Q9NQT4 whole entry): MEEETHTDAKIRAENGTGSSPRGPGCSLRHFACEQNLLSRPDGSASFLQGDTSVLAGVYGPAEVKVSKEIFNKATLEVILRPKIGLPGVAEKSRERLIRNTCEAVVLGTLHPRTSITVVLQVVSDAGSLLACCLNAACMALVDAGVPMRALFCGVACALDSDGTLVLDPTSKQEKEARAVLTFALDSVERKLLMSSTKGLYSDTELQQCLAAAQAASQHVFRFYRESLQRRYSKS

effect of a mutation on the interaction	Variant
with no effect	E423G

Variants of: B2
Details: with vti1b_human VTI1B

effect of a mutation on the interaction	Variant
with no effect	E108K

Variants of: B3
Details: with dtnb_human DTNB

effect of a mutation on the interaction	Variant
disrupting interaction strength	R154G

Variants of: B4
Details: with creb3_human CREB3, O43889

effect of a mutation on the interaction	Variant
with no effect	T48K

Variants of: B5
Details: with pa1b3_human PAFAH1B3, Q15102

effect of a mutation on the interaction	Variant
with no effect	V182M
with no effect	G242R
with no effect	G225R

Variants of: B6
Details: with rhoj_human RHOJ

effect of a mutation on the interaction	Variant
with no effect	H215R
disrupting interaction strength	L514R
with no effect	R103C
